Experimental data taken from US20130224191A1, “NOTUM PROTEIN MODULATORS AND METHODS OF USE” (priority 2010, published 2013).

T1: Notum (Homo sapiens, UniProt Q6P988)
T1 sequence (Q6P988 20-496): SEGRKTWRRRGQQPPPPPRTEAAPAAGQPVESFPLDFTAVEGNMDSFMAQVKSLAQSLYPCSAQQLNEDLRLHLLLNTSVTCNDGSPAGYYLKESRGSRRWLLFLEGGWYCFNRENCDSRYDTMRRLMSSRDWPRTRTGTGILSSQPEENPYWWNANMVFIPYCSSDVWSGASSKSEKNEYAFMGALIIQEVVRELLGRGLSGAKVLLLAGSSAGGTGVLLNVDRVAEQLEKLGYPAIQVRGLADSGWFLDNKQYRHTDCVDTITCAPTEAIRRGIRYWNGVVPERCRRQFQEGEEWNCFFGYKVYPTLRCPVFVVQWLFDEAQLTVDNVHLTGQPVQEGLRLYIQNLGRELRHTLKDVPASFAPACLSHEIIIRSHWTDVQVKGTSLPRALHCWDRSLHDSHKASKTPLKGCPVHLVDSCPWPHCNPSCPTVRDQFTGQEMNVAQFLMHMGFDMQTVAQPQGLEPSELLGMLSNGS

T2: human Notum (recombinant or endogenous; construct not specified at the place of use) (human, UniProt Q6P988 20-496)
T2 construct: also called hNotum; human Notum protein
T2 sequence: T1 sequence (Q6P988 20-496)

B1: hSC2.D2.2 (antibody, human IgG1, V domains shown)
VH: EVQLVESGGGLVQPGGSLRLSCAASGFTFSSYGMNWVRQAPGKGLEWVSYISSSTVTTYYADSVKGRFTISRDNAKNSLYLQMNSLRDEDTAVYYCSRQNWDGGYFDVWGAGTTVTVSS
VL: DIVMTQSPLSLPVTPGEPASISCRASKSVSSSGYSYMHWYLQKPGQSPQLLIYLASNLESGVPDRFSGSGSGTDFTLKISRVEAEDVGVYYCQHSRALPLTFGAGTKLELKR
notes: Humanized variable regions cloned into vectors with human IgG1 and kappa constant regions; also called humanized SC2.D2.2
B2: hNotum-Fc: recombinant human Notum fused to human IgG2 Fc, SEQ ID NO: 333 (protein)
chain: MYRMQLLSCIALSLALVTNSSEGRKTWRRRGQQPPPPPRTEAAPAAGQPVESFPLDFTAVEGNMDSFMAQVKSLAQSLYPCSAQQLNEDLRLHLLLNTSVTCNDGSPAGYYLKESRGSRRWLLFLEGGWYCFNRENCDSRYDTMRRLMSSRDWPRTRTGTGILSSQPEENPYWWNANMVFIPYCSSDVWSGASSKSEKNEYAFMGALIIQEVVRELLGRGLSGAKVLLLAGSSAGGTGVLLNVDRVAEQLEKLGYPAIQVRGLADSGWFLDNKQYRHTDCVDTITCAPTEAIRRGIRYWNGVVPERCRRQFQEGEEWNCFFGYKVYPTLRCPVFVVQWLFDEAQLTVDNVHLTGQPVQEGLRLYIQNLGRELRHTLKDVPASFAPACLSHEIIIRSHWTDVQVKGTSLPRALHCWDRSLHDSHKASKTPLKGCPVHLVDSCPWPHCNPSCPTVRDQFTGQEMNVAQFLMHMGFDMQTVAQPQGLEPSELLGMLSNGSISAMVRSVECPPCPAPPVAGPSVFLFPPKPKDTLMISRTPEVTCVVVDVSHEDPEVQFNWYVDGVEVHNAKTKPREEQFNSTFRVVSVLTVVHQDWLNGKEYKCKVSNKGLPAPIEKTISKTKGQPREPQVYTLPPSREEMTKNQVSLTCLVKGFYPSDIAVEWESNGQPENNYKTTPPMLDSDGSFFLYSKLTVDKSRWQQGNVFSCSVMHEALHNHYTQKSLSLSPGK

Key:
Notum [1] = biological target: T1, Notum; assay: Bio-layer interferometry on ForteBIO RED; type: binding; settings: 250, 125 and 62.5 nM antigen
Procedure: (§1) Three methods were used to characterize the affinity of humanized SC2.D2.2 relative to its analogous mAb with the murine variable region. First, binding signal was measured for a fixed amount of antibody probed against serial dilutions of antigen in an ELISA format. […] Second, the affinity of murine SC2.D2.2 was measured by Biacore using surface plasmon resonance (SPR) to provide the results set forth in FIG. 32A. Based on a concentration series of 12.5, 6.25, 3.125, 1.5625, 0.78125 nM and using a 1:1 Langmuir binding model, the Kd of the antibody binding to antigen was estimated to be less than 0.1 nM. Long off-rates for this interaction made accurate determination of affinity through kinetics difficult. The murine antibody was then directly compared to the humanized derivative using bio-layer interferometry analysis on a ForteBIO RED (ForteBIO, Inc.) with a concentration series of 250, 125, and 62.5 nM antigen.

Notum [2] = biological target: T1, Notum; assay: ELISA, fixed antibody against serial dilutions of antigen; type: binding
Procedure: as §1

[3] = biological target: T2, human Notum (recombinant or endogenous; …); assay: bio-layer interferometry (ForteBIO RED), fixed antibody, antigen at 250, 125 and 62.5 nM by the text
Procedure: Three methods were used to characterize the affinity of humanized SC2.D2.2 relative to its analogous mAb with the murine variable region. First, binding signal was measured for a fixed amount of antibody probed against serial dilutions of antigen in an ELISA format. Measured signal levels were substantially similar (data not shown). Second, the affinity of murine SC2.D2.2 was measured by Biacore using surface plasmon resonance (SPR) to provide the results set forth in FIG. 32A. […] Long off-rates for this interaction made accurate determination of affinity through kinetics difficult. The murine antibody was then directly compared to the humanized derivative using bio-layer interferometry analysis on a ForteBIO RED (ForteBIO, Inc.) with a concentration series of 250, 125, and 62.5 nM antigen.

[4] = test system: Wnt3A-mediated induction of luciferase in the 293.TCF cells; assay: Wnt3A canonical signaling assay, bioactivity of Notum constructs; type: cell-based, human
Description: To generate a stable population of cells that contain a reporter for the activation of canonical Wnt signaling, HEK 293T cells were transduced with a lentiviral vector, pGreenFirel-TCF (System Biosciences) which encodes a bifunctional GFP and luciferase reporter cassette under the control of a minimal CMV reporter linked to four tandem repeats of the transcriptional response elements for TCF. Transduced cells populations, termed 293.TCF cells, were subsequently used in a Wnt3A canonical signaling assay as follows: 2.5×10^4 293.TCF cells were plated per well of a 96-well tissue culture plate in 50 μL of serum-free DME medium. After 24 hours of serum starvation, 25 μL of various dilutions of conditioned medium (CM) from L/Wnt3A cells (ATCC CRL-2647; Willert, 2003) or undiluted CM from parental L-cells (ATCC CRL-2648) along with 25 μL of DMEM+0.2% FBS were added to each well. Eighteen hours after addition of CM, 100 μL of One-Glo solution (ProMega Corp.) was added to each well. The contents of each well were then mixed thoroughly to lyse the cells, 100 μL of lysate transferred to black 96-well plates, and the luminescence in each well read after 5 mins using a Wallac Victor3 Multilabel Counter (Perkin-Elmer Corp). […] More particularly, as the Wnt3A+ CM media is diluted from 25% down to approximately 3%, activation of the Wnt pathway is reduced with a corresponding decrease in luminescence.
Once the luciferase reporter system was established, assays for determining the bioactivity of various Notum modulators were performed as follows. 2.5×10^4 293.TCF cells were plated per well of a 96-well tissue culture plate in 50 μL of serum-free medium. After 23 hours of serum starvation, 25 μL of DMEM+0.2% FBS containing various Notum modulators at various concentrations (e.g., hNotum-His, hNotum-hFc, hNotum-S232A-His, murine Notum-His, murine Notum-hFc, macaque Notum-hFc, control protein-His or control protein-hFc obtained as per Examples 7, 8 and 13 above), were added to the cells. After 1 hour, 25 μL of Wnt3A or control L-cell CM were added to each well. Eighteen hours after addition of CM, 100 μL of One-Glo solution (ProMega Corp.) was added to each well, the contents of each well mixed thoroughly to lyse the cells, 100 μL of lysate transferred to black 96-well plates, and the luminescence read after 5 minutes.

[5] = test system: mouse lineage-depleted NTX tumor cells from SCRx-CR4; assay: Cell survival/proliferation, CellTiterGlo, SCRx-CR4; type: cell-based, human; settings: 1 or 10 μg/mL, 14 days
Procedure: To determine whether Notum protein impacts cell proliferation and/or apoptosis of human colorectal cancer cells, HCT-116 cells or mouse lineage-depleted NTX tumor cells (i.e. human tumor cells) were plated as described below and exposed to recombinant hNotum (e.g. hNotum-His or hNotum-hFc) and anti-Notum antibodies. Cell numbers were then assessed 12-14 days later.
Cells were then incubated for 14 days at 37° C., 5% CO2 and 5% O2 and the number of viable cells was assessed using Promega's CellTiterGlo assay kit per the manufacturer's instructions. For the HCT-116 cell line (a commercially available colorectal tumor cell line), cells were plated at 2,000 cells per well in DMEM+1% FBS, followed 24-hours later by the addition of serum free DMEM containing recombinant human Notum in the presence or absence of monoclonal antibodies SC2.D2.2 or SC2.10B3. HCT-116 cells were then incubated for 12 days at 37° C., 5% CO2 and cell viability was assessed with Promega's CellTiterGlo assay kit. Higher readings are indicative of higher viable cell counts.

rhWnt3A = biological target: T3, rhWnt3A (Homo sapiens, UniProt P56704); assay: Triton X114 partition assay, delipidation of rhWnt3A by Notum; type: biochemical; settings: overnight incubation
T3 construct: purchased R & D Systems
Description: If Notum directly acts upon Wnt3A to delipidate the protein, this cleavage should result in a change in the hydrophobicity of the protein, which can be measured by a change in its partitioning behavior between aqueous and detergent phases in a Triton X114 partition assay (Bordier, 1981, PMID: 6257680): lipidated Wnt3A will be found in the […], whereas delipidated Wnt3A should show up in the […] (Willert et al., 2003, PMID: 12717451). […] An equal volume of 4.5% Triton X114 was added to the mixture, the mixture incubated on ice for 5 minutes, then at 37° C. for five minutes, before separating the phases using centrifugation at 2000×g for five minutes at room temperature. Following separation each sample was adjusted to normalize the ionic strength and Triton X114 content before analyzing the aliquots by PAGE electrophoresis. After running the gel the protein bands were transferred to a membrane for immunoblotting using an anti-rhWnt3A antibody (Cell Signaling Technology). Bands were visualized using SuperSignal West Pico Chemiluminescent substrate (Thermo Fisher Scientific).

T3 sequence (P56704 19-352): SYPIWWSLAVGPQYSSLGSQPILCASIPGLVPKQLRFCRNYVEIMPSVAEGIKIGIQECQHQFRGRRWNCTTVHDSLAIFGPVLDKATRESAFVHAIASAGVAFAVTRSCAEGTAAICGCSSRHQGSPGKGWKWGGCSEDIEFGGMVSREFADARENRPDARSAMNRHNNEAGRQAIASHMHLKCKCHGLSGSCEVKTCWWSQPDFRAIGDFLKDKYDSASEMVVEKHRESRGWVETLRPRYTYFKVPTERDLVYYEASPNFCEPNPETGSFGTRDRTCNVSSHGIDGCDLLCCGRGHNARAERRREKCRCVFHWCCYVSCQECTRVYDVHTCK

Row | Molecule | affinity, binding curves (Notum [1]) | binding signal relative to antibody with murine variable region (Notum [2]) | binding result [3] | antagonism of Wnt3A-mediated induction of luciferase [4] | increase in cell counts [5] | redistribution of rhWnt3A between Triton X114 and aqueous phase (rhWnt3A)
1 | B1 | excellent affinity | substantially similar | binds | – | – | –
2 | B2 | – | – | – | functionally antagonize | 20-45% | leads to a redistribution of the rhWnt3A into the aqueous phase
